Data published in patent US20180170992A1.

Legend:
[1] = biological target: Pngase F-treated rhIL13Rα2hFc (human) (UniProt Q14627); test: plate-bound ELISA on Pngase F-treated rhIL13Rα2hFc
[2] = biological target: recombinant human IL13Rα2hFc chimera (R&D Systems) (human) (UniProt Q14627); test: SPR, Biacore 3000; mAb immobilised, rhIL13Rα2 in the flow; 1:1 model
[3] = biological target: IL13Rα2 expressed on the surface of human glioma cells (A172, N10, U251, U87, U118, U373, GBM12, GBM43) and in GBM tissue (human) (UniProt Q14627); test: flow cytometry on N10 glioma cells, isotype control [left table]
[4] = biological target: IL13Rα2 expressed on the surface of human glioma cells (A172, N10, U251, U87, U118, U373, GBM12, GBM43) and in GBM tissue (human) (UniProt Q14627); test: flow cytometry on N10 glioma cells pre-incubated with 10x excess rhIL13 [left table]

| percent decrease of binding against untreated protein [1] | Kd [2] | koff [2] | kon [2] | % positive cells [3] | % positive cells [4] | Substance |
| --- | --- | --- | --- | --- | --- | --- |
| 80% | 104 nM | 0.00231 s⁻¹ | 22300 M⁻¹ s⁻¹ | – | – | mAb to IL13Rα2 (clone 83807), R&D Systems (antibody) |
| – | – | – | – | 1.9% | 0.9% | control mouse IgG (antibody) |
| – | 46.1 nM | 0.00499 s⁻¹ | 108000 M⁻¹ s⁻¹ | – | – | monoclonal antibody to IL13Rα2 (clone B-D13), Santa Cruz Biotechnology |
